In patent US20150274802A1:

Columns and labels:
[1] = biological target: type A insulin receptor (UniProt P06213); assay: competitive binding SPA, [125I]insulin
[2] = biological target: type A insulin receptor (UniProt P06213); assay: cell-based or functional assay
[3] = biological target: type A insulin receptor (UniProt P06213); assay: binding assay
[4] = biological target: type B insulin receptor (UniProt P06213); assay: cell-based or functional assay

Work on “Cys-Cys^B1 peptide (analog #2* with Cys^B1 disulfide-bonded to free cysteine) (ligand)” yielded a % activity (binding assay) [1] of 55.4% and a % activity, phosphorylation assay [2] of 23.1%.
For “Insulin analog B^1[H5Y16L17O22R29]29:A^1[O9,14,15N18,21] (ligand)”, the % activity (binding assay) [3] was 55%.
“#48: Cys^B1-Cys^B1 #2* dimer, B^1[C1H5Y16L17O22R29]29:A^1[O9,14,15N18,21] (ligand)” was tested, and the % receptor activity (binding assay) [1] was 147% and the % receptor activity, phosphorylation assay [2] was 102%.
With “#31: IGF-2 analog B^2-C^2[K8]-A^2-D^2[R4] (from UniProt P01344 25-91) (ligand)” the potency [4] was 2 fold and the potency [2] was 2 fold.
